In PMC7782693, “Structural insights into photoactivation of plant Cryptochrome-2” (Communications Biology, 2021):

Experiments:
[1] = molecular target: the molecule itself; assay: SEC; Superdex-200 gel filtration, 20 mM Tris pH 8.0, 200 mM NaCl, 2 mM DTT, 4% glycerol; molecular weights estimated against standards
[2] = molecular target: the molecule itself; assay: crystal structure; hanging-drop vapor diffusion at 25 °C under continuous full-spectrum white light (40 μmol m^2 s^-1); 1.5 M sodium nitrate, 0.1 M BIS-TRIS propane pH 7.0; tetramer of four monomers A-D

B1: Arabidopsis CRY2 photolyase homologous region (PHR) domain (domain or fragment, Arabidopsis thaliana, UniProt Q96524 1-498, looked up)
chain: MKMDKKTIVWFRRDLRIEDNPALAAAAHEGSVFPVFIWCPEEEGQFYPGRASRWWMKQSLAHLSQSLKALGSDLTLIKTHNTISAILDCIRVTGATKVVFNHLYDPVSLVRDHTVKEKLVERGISVQSYNGDLLYEPWEIYCEKGKPFTSFNSYWKKCLDMSIESVMLPPPWRLMPITAAAEAIWACSIEELGLENEAEKPSNALLTRAWSPGWSNADKLLNEFIEKQLIDYAKNSKKVVGNSTSLLSPYLHFGEISVRHVFQCARMKQIIWARDKNSEGEESADLFLRGIGLREYSRYICFNFPFTHEQSLLSHLRFFPWDADVDKFKAWRQGRTGYPLVDAGMRELWATGWMHNRIRVIVSSFAVKFLLLPWKWGMKYFWDTLLDADLECDILGWQYISGSIPDGHELDRLDNPALQGAKYDPEGEYIRQWLPELARLPTEWIHHPWDAPLTVLKASGVELGTNYAKPIVDIDTARELLAKAISRTREAQIMIGAA
notes: Cryptochrome-2 (CRY2), Arabidopsis thaliana, PHR domain, residues 1-498, wild type; Expressed as a GST fusion from the pFastbac-GST vector; GST removed by TEV protease on the column; The crystal holds four copies (monomers A-D); in solution mostly monomer; also called AtCRY2-PHR; CRY2-PHR
[1]
  stoichiometry N: 2
[2]
  stoichiometry N: 4
